Target: T1, His-GFP-JRAB/MICAL-L2 (mouse, UniProt Q3TN34 1-1009)
T1 construct: JRAB/MICAL-L2, mouse; cDNA encoding JRAB/MICAL-L2 subcloned into pcDNAHisMax-GFP; The plasmid encodes the His6-tag followed by GFP, then the protein's cDNA; source: HEK293, transfected, purified (cOmplete resin, Superdex 200)
Assay: recruitment to liposomes seen by confocal microscopy; purified His-GFP-JRAB/MICAL-L2 and His-mCherry-Rab8ADA (150 nM) mixed with PC:PS (7:3) liposomes in 20 mM HEPES-NaOH pH 7.5, 100 mM KCl, 1 mM DTT
Conditions: both partners purified

T1 sequence (Q3TN34 whole entry): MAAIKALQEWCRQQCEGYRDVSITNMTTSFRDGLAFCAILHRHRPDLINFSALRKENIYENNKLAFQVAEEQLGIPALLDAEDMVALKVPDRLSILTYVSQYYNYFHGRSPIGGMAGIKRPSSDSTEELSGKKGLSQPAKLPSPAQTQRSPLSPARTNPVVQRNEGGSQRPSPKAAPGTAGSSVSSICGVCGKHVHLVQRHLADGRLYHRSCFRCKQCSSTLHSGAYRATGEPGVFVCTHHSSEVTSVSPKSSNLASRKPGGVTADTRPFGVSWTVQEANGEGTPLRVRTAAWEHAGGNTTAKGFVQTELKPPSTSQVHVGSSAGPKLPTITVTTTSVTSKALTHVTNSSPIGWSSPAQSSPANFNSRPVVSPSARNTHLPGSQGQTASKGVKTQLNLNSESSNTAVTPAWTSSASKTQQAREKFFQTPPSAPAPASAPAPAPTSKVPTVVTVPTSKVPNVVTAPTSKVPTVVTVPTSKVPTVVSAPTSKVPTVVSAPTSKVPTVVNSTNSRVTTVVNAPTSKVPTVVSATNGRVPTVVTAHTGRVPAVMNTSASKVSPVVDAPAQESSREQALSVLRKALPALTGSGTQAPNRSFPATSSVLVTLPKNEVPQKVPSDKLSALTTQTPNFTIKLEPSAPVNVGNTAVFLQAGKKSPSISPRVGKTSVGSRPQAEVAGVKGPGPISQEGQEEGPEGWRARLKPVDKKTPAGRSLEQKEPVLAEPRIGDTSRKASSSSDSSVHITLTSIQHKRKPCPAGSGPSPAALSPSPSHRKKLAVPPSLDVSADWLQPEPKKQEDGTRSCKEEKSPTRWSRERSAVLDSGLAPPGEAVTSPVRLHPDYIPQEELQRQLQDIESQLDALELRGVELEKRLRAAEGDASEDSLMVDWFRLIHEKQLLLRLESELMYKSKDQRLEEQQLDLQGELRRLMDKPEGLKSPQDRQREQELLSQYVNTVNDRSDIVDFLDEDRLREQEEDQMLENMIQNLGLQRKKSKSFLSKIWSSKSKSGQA

- binding result: binds
B1: His-mCherry-Rab8ADA (natural protein, mouse, UniProt P55258 1-207, looked up)
chain: MAKTYDYLFKLLLIGDSGVGKTCVLFRFSEDAFNSTFISTIGIDFKIRTIELDGKRIKLQIWDTAGLERFRTITTAYYRGAMGIMLVYDITNEKSFDNIRNWIRNIEEHASADVEKMILGNKCDVNDKRQVSKERGEKLALDYGIKFMETSAKANINVENAFFTLARDIKAKMDKKLEGNSPQGSSHGVKITVEQQKRTSFFRCSLL
notes: Rab8A, mouse, dominant-active mutant Q67L; cDNA subcloned into pcDNAHisMax-mCherry; The plasmid encodes the His6-tag followed by mCherry, then the protein's cDNA; Purified from the membrane (pellet) fraction; source: HEK293, transfected, purified from the CHAPS-extracted pellet fraction (Talon resin)

Reference: paper PMC8113518, “JRAB/MICAL-L2 undergoes liquid–liquid phase separation to form tubular recycling endosomes” (Communications Biology, 2021)
